# Experimental data reported in the nanobody polyreactivity screen of Harvey et al. (2022).
# Assay: yeast display, Sf9 membrane polyspecificity reagent, FACS + sequencing; frameworks hold sequencing errors
# Procedure, shortened: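 Using colony PCR, genes from sorted yeast display clones were amplified, then sequenced on MiSeq at 2 × 250 and filtered by CDR length. The clones had been stained with 10% biotinylated, detergent-solubilized Sf9 membrane reagent for 1 hour at 4 °C and sorted by FACS into low and high (top ~1%) gates on anti-HA and streptavidin fluorescence. Polyreactivity labels come from the gate of origin.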
row,Sequence,polyreactivity (PSR sort gate)
1,QVQLVESGGGLVQAGGSLRLSCAASRITSYPYAMGWSRQGPGKERELVAAISKRGGGTYYADSVKGPFTISRDNAMNTVYLQLNSLKPVDTAVYYCAKSWGPTTYKIVPAYGYWGQGTQVTVSS,high polyreactivity
2,QVQLVESGGGLVQAGGSLRLSCAASGIIFNYYTMGWYRQAPGKERELVAVITSRGSSPYYADSVKGRFTISRDNAKNTVNLQMNSLKPDDTAVYYCAKVRPYLDTNEYYYWGQGTQVTVSS,high polyreactivity
3,QVQLVESGGGLVQAGGSLRLSCAASGIIFRRYAMGWYSQAPVKERELVAAITGSGGSPYYADSVKGRFTISRDNAKNTVYLQMNSLKPEDTAVYYCAAQSVLRFASSRYNSWGQGTQVTVSS,high polyreactivity
4,QVQHVESGGGLVQAGGSLRLSCAASGIFVDNAMGWYRQARGKERELVAAITSSTDSTYYADSVKGRFPISRDNAKNTVYLQINSLNPEDSAVYYCAVARPGGFYFLVHYGYGYWGQGTQVTVSS,low polyreactivity
5,QVQLVESGGGLVQAGGSLRLSCAASGSTFDYYAMGWSRQAPGKERELVAAITGTGGSTYYADSEKGRFTISRNNAKNTVYLQMNSLKPEDTAVYYCNRVSGTRRHTMDYWGQGTQVTVSS,low polyreactivity
6,QVQLVESGGGLVQAGGSLRLSCAASGSIFLYNTMGWYRQAPGKERELVAAITSGGNTNYADSVKGRFTISRDNAKNTVYLQMHSLKPEDTAVYYCNVDLKAWLPDGGSVDYWGQGTQVTVSS,low polyreactivity
7,QVQLVESGGGLVQAGGSLRLSCAASGSTIRFYYMGWYRQEPGKERELVAAITGIGDSTYYSDSVKGRFTISRDNAKNSVYLQMNSLKPEDTAVYYCAAERYYYTARLRYWRYFWGQGTQVTVSS,high polyreactivity
8,QVQLVESGGGLVQAGGSLRLSCAASGSTFRSYAMGWYRQAPGKERELVARISYRTGSTYYADSVKGRFTISRDNAKNTVYLQMNSLKPEDTAVYYCATRGSYVGGLYDYWGQGTQVTVSS,high polyreactivity
9,QVQLVESGGGLVQAGGSLRLSCAASGRTFVYNGMGSYRQAPGKERELVAAISGSGGSTYYADSVKGRFTISRDNAKNTVYLQMNSLKPEDTAVYYCATRQGYRLYYWGQGTQVTVSS,high polyreactivity
10,QVQLVESGGGLVQAGGSLRLSCAASGRIFSYNAMGWYRQAPGKERELVARINWSSGRTYYADSVKGRFTISRDNAKNTVYLQMNSLKPEDTAVYYCNRVSRGPVGGYYWGQGTQVTVSS,high polyreactivity
11,QVQLVESWGGLVQAGGSLRLSCAASGSTIAYYVLGWYRQAPRKERELVAAINFSGDSTYYADSVKGRFTNSRDNAKNTVNLQMNSLKPEDTAVYYCAVDWGEYIDTSVKRDISYYWGQGTQVTVSS,low polyreactivity
12,QVQLVESGGGLVQAGGSLRLSCAASGNIFDEYTMGWYRQAPGKERELVAGISWSGSHTYYADSVKGRFTISRDNAKNTVYLQMNSLKPEDTAVYYCIADSYPDYTGPGLDWYDYWGQGTQVTVSS,low polyreactivity
13,QVQLVESGGGLVQAGGSLRLSCAASGITFGCNAMGWYRQAPGKEREFVAAITFSDGSTRYADSVKGRFTISRDNAKNTVYLQMNSLKPEDTAVYYCAADTWSDKYDYWGQGTQVTVSS,low polyreactivity
14,QVQLVESGGGLVQAGGSIRLSCAASGRTFGDYAMGWYRQAPGKERELVAAISSSGGRTYYADSVKGRFTISRDNAKNTVYLQMNSLKPEDTAVYYCAAQSKYYQYYSWGQGTQVTVSS,high polyreactivity
15,QVQLVESGGGLVQAGGSLRISCAASGSIFQGYAMGWYRQAPGKERELVATITWSGGSTYYADSVTGRFTISRDNAKNTVYLQMNSLKPEETAVYYCNADSNGYYLWNYYGMYDYWGQGTEVTVSS,low polyreactivity
16,QVQLVESGGGLVQAGGSLRLSCAASGSTFESYAMGWYRQAHGKERELVASISRSGGTTFYADSVKGRFTISRDNAKNTVYLQMNSLKPEDTAVYYCAAKRRRLGGDYWGQGTQVTVSS,high polyreactivity
17,QVQLLESGGGLVQAGGSLRLSCAASGSIFSYNAMGWYRQAPGTERELVAAITSGDSTNYADSVKGRFTISRDNAKNTVYLQMNSLKPEDTAVYYCAADPVLPAFGYVGTSLGYYWGQGTQVTVSS,low polyreactivity
18,QVQLVESGGGLVQAGGSLRLSCAASGRIFGNYAMGWYRQAPGKERELVAAITSGARTYYADSVKGRFTISRDNAKNTVYLQMNSLKPEDTAVYYCAAYHKSYSYRYDYWGQGTQVTVSS,high polyreactivity
19,QVQLVESGGGLVQAGGSLRLSCAASGSTFGTYAMGWYRQAPGKERELVAAITRSGGSTYYADSVKGRFTISRDNAKNTVYLQKNSLKPEDTAVYYCAKYVFSYPQSYAYYYWGHGTQVTVSS,high polyreactivity
20,QVQLVESGGGLVQAGGSLRLSCAASGSIFGYYTMGWYRPAPGKERELVAAITSGGSTNYADSVKGRFTISRDNAKNTVYLQMNSLKPEDTAVYYCAKVSYYPWRYDYWGQGTQVTVSS,low polyreactivity
21,QVQLVESGGGLVQAGGSLRLSCAASGIIFLDYVMGWYRQAPGKERELVAAINSGGSTYYADSVKGRFTISRANAKNNVYLQMNSLKPEDSAVYYCNAVFYDDWQIYDYWGQGTQVTVSS,low polyreactivity
22,QVQLVESGGGLVQAGGGLRLSCAASGTFKRNAMGWYRQAPGKERELVATITRTGSTTYADSVKGRFTISRDNAMNTVYLQMYSQKPEDTAVYYCAAGYPPEDPEDYWGQGTQVTVSS,low polyreactivity

row,Sequence,polyreactivity (PSR sort gate)
1,QFQLVESGGGLVQAGGILRLSCAASGITFRIYAMGWYRQAPGKERELVAGISSSGSTNYADSVKGRFTISRESAKNTVYLQMNSLKPEDTAVYYCAADAFYKFDYWGQGTQVTESS,high polyreactivity
2,QVQLVESGGGLVQAGGSIRLSCAASGFTFTRYTMGWYRQAPGKERELVARITRSGGSTYYADSVKGRFTISRDNAKNTVYLQMNSLKPEDTAVYDCAAGYVVATRYDYWGQGTQVTLSS,high polyreactivity
3,QVQLVDSVGGLVQAGGSLRISCAASGSIFGFYAMGWYRQSPGKERELVAAISQRGGNTYYADSVKRRFTISRDNAKNTVYLQMNSLKPEDTAFYFCASDKHPYKRHWYYTYDYWGLGTQVTVSS,high polyreactivity
4,QVQLVESGGGLVKAGCSLRLSCAASGFTFGRYAMGWYRQAPGKERELVAAISRTGGRTYYADSVKGRFTISRDNAKNTVYLQMNSLKPEDTAVYYCAADKGGTYFNGDSWGQGTQVTVSS,high polyreactivity
5,QVQLVESGGGLVQAGGSLRLSCAASGYTLKYYAMGWYRQAPGKERELVAVISRGGSTYYADSVKGRFTISRDNAKNTVDLQMNSLKPEDTAVYYCAKRPTQGYYPYGYWGQGTQVTVSS,high polyreactivity
6,QVQLVESGGGLVQAGGSLRLSCAASGLIFFVYAMGWYRQAPGKERELVAAISASGVSTNYADSVKGRFTISRDNAKNTVYLQMNSLKPEDTAVYYCAAGRGGYGYWGQGTQVTVSS,low polyreactivity
7,QVQLVESGGGLVQAGGSLRLSCAASGSIFEGYAMGWYRQAPGKERELVAAISRSGGSTYYADSVKGRFTISRDNAKNTVYLQMNSLKPEDTAVYYCAARKAIDYQGRHDHWGQGTQVTVSS,low polyreactivity
8,QVQLVESGGGIVQAGGSLRLSCAASGRIFSGNGMGWYRQAPGKEREFVAAIRFSSGSTYYADSVKGRFTISRDNAKNTVYLQMNSLKPEDTAVYYCARPSIPSRYDYWGQGTQVTVSS,high polyreactivity
9,QVRLVESGGGLVQAGGSLRLSCAASGRIFVYNAMGWYRQPPGKERELVASISWSGDSTYADSVKGRFTISRDNAKNTVYLQMNSLKPEDTAVYYCAAYSQADYQNMDYWGQGTQVTVSS,low polyreactivity
10,QVQLVESGGGLVQAGGSLRLSCAASGFNFPHYAMGWYIQAPGKERELVAAISWSGTRTYYADSVKGRFTISRDNAKNTVYLQMNSLKPEDTAVYYCNADSITEGNSRYSHFDYWGQGTQVTVSS,low polyreactivity
11,QVQLVESGGGLVQAGGSLRLSCAASGFIFSSYAMGWYIQAPGKERELVAAISRSGGRTYYADSVKGRFTISRDNAKNTVYLKMNSLKPEDTAVYYCAAKWLGTAGDDYWGQGTQVTVSS,high polyreactivity
12,QVQLVESGGGLVPAGGSLRLSCAASGFIFQWYAMGWYRQAPGKERELVAAISSSGGSTYYADSVKGRFTISRDNAKNTVYLQMNSLKPEDTAVYYCAAVWASYPYRGVDYWGQGTQVTVSS,high polyreactivity
13,QVQLVESGGGLVQAGGSLRLSCAASGSIIGLYVMGWYRQAPGKERELVAAISWSGGSTYYADSVKGRFTISRDNAKNTVYLQMNSLKPEDTAVYYCAARVYSVADYYYWGQGTQVTVSS,low polyreactivity
14,QDQLVDSGGRLVQGGGSLRLSCAASGYIFIWYDMGWYRQAPGKERELVAAISGSGGYTYYADSVKGRFTISRDNAKNTVFLQMNSLKPEDTAVYYCAAYVARGNSEVIAMDYWGQGTQVTVSS,low polyreactivity
15,QVQLVESGGGLVQAGGSLRLSCAASGFTIYNYAMGWYRQAPGKERELVAAISWSGGSTHYADSVKGRFTISRDNAKNTVYLQMNSLKPEDTAVYYCAKVGVLVYYTYYYWGQGTQVTVSS,low polyreactivity
16,QVQLQESGGGLVQAGGSLRLSCAASGYISLAQTIGWYRQAPGKEREFVASIALGSSTYYTDSVKGSFTISRDNAKTTVYLQMNSLKPEDTAVYYCAARVGASYAHDYWGQGTQVAVSS,low polyreactivity
17,QVQLVESGGGLFQAGGSLRLSCAASGRTFCFYTMGWYRQAPGKASELVAAISSGGSTNYADSVKGRFTISRDNAKNTVYLQMNSLKPEDTAVYYCNARFPVCPSEDAVWYYPKFDYWGQGTQVTVSW,low polyreactivity
18,QVQLVESGGGLVQAGGSLRLSCAASGLTFKPYAMVWYRQAPGKEREFVAAISWRSGSTYYADSVKGRFTISRDYEKNTVYLQMNRLKPEDTAVYYCNALYRVFVGTYDFWGQGTHVTVSS,high polyreactivity
19,QVQLVESGGGLVQAGGSLLLSCAASRSISYAYAMGWYRQAHGKERELVAAISWSDGSTYYADSVKGRFTISRDNAKNTVYLQMNSLKPEDTAVYYCAADYGWHYGDWYDYWGQGTQVTVSS,low polyreactivity
20,QVQLVESGGGLVQAGGSLRLSCAASGRIFPDYDMGWYRQAPGKERELVAAITQRGGSTYADSVKGRFTISRDNAKNTVYLQMNSLKPEDTSVYYCAREYYEGYEYWGQGTQVTVSS,low polyreactivity
21,QVQLVESGGGLVQAGGSLRLSCAASGFTFVRNAMGWYRQAPGKERELVAAISYRGGSTYYADSVKGRFTISRDNAKNTVYLQMNSLKPEDTAVYYCAAEAGYSSRRYYWGQGTQVTVSS,high polyreactivity
